Measured values taken from patent publication US20020094546A1.
One block for each substance: values may come before it.

Columns and labels:
[1] = target: alpha PDGF receptor on 32D cells expressing only the alpha receptor (UniProt P16234); assay: competition of unlabeled PDGF DD with ^125I-PDGF AA on 32D alpha receptor bearing cells
[2] = target: beta PDGF receptor on HR5βR cells expressing only the beta receptor (UniProt P09619); assay: cell-based or functional assay
[3] = target: human beta PDGF receptor on human cells that carry both receptors (CCD1070 fibroblasts, MG-63 cells) (human) (UniProt P09619); assay: two-site ELISA for alpha-beta PDGF receptor heterodimers: capture with anti-beta PDGF receptor mAb, detection with polyclonal anti-alpha PDGF receptor; MG-63 lysates after PDGF DD 100 ng/mL, 10 min
[4] = target: human beta PDGF receptor on human cells that carry both receptors (CCD1070 fibroblasts, MG-63 cells) (human) (UniProt P09619); assay: two-site ELISA for alpha-beta PDGF receptor heterodimers: capture with anti-beta PDGF receptor mAb, detection with polyclonal anti-alpha PDGF receptor; MG-63 lysates after PDGF BB 10 ng/mL, 10 min
PDGF AA (human) = PDGF AA (human) (UniProt P04085); assay: cell-based or functional assay
[5] = target: PDGF DD p35 (p35 form of the 30664188 gene product, dimeric C-terminal fragment) (human); assay: cell-based or functional assay

Sequence of human beta PDGF receptor on human cells that carry both receptors (CCD1070 fibroblasts, MG-63 cells) (human) (P09619 33-1106): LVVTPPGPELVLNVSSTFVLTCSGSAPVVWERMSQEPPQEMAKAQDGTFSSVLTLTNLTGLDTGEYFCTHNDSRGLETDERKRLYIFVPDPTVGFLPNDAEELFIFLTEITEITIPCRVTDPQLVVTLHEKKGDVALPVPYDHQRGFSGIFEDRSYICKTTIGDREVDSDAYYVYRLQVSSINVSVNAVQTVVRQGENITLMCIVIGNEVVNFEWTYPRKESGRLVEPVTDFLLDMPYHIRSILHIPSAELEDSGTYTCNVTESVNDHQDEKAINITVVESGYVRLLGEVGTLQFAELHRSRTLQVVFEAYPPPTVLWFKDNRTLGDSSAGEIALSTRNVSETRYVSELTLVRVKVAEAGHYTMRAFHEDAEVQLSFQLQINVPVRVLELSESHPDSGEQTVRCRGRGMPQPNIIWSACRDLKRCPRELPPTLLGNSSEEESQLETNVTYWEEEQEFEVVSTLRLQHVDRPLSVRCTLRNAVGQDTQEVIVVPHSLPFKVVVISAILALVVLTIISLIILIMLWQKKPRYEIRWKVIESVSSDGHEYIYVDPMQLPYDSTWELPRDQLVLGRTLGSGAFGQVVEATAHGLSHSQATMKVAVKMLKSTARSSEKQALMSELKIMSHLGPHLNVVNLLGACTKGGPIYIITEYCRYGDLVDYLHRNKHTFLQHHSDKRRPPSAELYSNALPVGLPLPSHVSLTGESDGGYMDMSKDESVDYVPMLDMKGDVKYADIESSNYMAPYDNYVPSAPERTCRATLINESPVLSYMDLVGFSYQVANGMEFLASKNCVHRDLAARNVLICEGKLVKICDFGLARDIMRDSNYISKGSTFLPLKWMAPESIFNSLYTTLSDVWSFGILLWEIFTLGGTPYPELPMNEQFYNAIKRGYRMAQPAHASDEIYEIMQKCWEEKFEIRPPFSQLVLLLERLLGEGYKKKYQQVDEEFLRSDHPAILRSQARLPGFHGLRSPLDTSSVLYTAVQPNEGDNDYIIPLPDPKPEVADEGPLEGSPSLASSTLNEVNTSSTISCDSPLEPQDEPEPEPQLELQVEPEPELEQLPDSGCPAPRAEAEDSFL
Sequence of beta PDGF receptor on HR5βR cells expressing only the beta receptor (P09619 33-1106 limits assumed): as the sequence (P09619 33-1106) above
Sequence of alpha PDGF receptor on 32D cells expressing only the alpha receptor (P16234 24-1089): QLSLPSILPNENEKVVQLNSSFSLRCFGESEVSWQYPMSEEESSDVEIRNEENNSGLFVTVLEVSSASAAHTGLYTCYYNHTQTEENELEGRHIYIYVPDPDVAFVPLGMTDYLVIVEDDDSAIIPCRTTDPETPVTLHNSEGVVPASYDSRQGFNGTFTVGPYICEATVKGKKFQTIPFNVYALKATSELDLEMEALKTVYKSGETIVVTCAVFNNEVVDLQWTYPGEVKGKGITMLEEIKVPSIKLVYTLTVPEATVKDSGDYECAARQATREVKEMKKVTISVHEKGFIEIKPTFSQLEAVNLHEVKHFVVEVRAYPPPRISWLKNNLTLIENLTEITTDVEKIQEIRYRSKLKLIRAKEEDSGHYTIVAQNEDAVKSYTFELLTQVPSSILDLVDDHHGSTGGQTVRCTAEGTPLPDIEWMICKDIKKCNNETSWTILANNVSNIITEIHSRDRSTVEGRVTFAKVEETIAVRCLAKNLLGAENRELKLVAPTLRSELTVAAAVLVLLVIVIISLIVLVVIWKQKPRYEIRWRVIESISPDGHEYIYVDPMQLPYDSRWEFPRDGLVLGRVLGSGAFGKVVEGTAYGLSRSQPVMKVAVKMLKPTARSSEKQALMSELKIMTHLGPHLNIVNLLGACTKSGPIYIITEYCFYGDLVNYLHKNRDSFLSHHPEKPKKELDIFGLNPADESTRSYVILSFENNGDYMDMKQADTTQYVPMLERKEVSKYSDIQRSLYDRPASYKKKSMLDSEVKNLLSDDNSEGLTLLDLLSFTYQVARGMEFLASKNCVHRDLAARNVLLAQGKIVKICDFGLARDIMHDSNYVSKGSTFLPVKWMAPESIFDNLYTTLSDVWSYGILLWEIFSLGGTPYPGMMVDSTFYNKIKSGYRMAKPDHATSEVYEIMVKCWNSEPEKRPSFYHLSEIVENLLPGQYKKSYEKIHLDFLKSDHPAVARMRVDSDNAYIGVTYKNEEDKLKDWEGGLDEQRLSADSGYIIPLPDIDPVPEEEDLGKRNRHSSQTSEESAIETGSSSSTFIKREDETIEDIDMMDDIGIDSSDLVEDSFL

highest competitor concentration tested, no competition seen [1]: > 250 nM | lowest concentration at which beta PDGF receptor phosphorylation was detected, HR5 cells [2]: 10 ng/mL
Substance: PDGF DD p35 (p35 form of the 30664188 gene product, dimeric C-terminal fragment) (ligand)

Increase mODmin^-1 (650) (mODmin^-1 (650)) [3]: 12.5 | Increase mODmin^-1 (650) (mODmin^-1 (650)) [4]: 2.3
Substance: human alpha PDGF receptor on human cells that carry both receptors (CCD1070 fibroblasts, MG-63 cells) (from UniProt P16234 24-1089)

BrdU incorporation OD-blank, CCD1070 cells, AA + betaR Fc (AA alone 0.2705; + MOPC21 0.227) (PDGF AA (human)): 0.248 OD-blank | BrdU incorporation OD-blank, NIH/3T3 cells, AA + betaR Fc (AA alone 0.931; + MOPC21 0.992) (PDGF AA (human)): 0.942 OD-blank | BrdU incorporation OD-blank, CCD1070 cells, 3066 + betaR Fc (3066 alone 0.501; + MOPC21 0.456; starve 0.0303) [5]: 0.324 OD-blank | BrdU incorporation OD-blank, NIH/3T3 cells, 3066 + betaR Fc (3066 alone 0.902; + MOPC21 0.892; starve 0.0055) [5]: 0.0365 OD-blank
Substance: soluble beta PDGF receptor-IgFc fusion (R&D Systems) (from UniProt P09619 33-530)
